Columns and labels:
[1] = cited from earlier work; for Isoelectric point: Table 2; for Isoelectric point (-): Table 5
[2] = Hydrolysis of compound 28 in the liposome at low pH (thin layer chromatography); format: physicochemical; details: PBS pH 4.5, 37° C., 24 hours, liposome 3/4/3/0.03
Experimental: The prepared liposome (DOPC/chol/(28)/PEG-DPE=3/4/3/0.03, molar ratio) was dispersed in PBS of pH 4.5 at 37° C., and the dispersion was lyophilized 24 hours later. The dried mixed lipid powder was dissolved in chloroform and detected by thin layer chromatography (silica gel plate, chloroform/methanol (8/1) (volume/volume) detection: iodine).

In the case of Thyrogrobulin: model protein, 670 kDa, the Isoelectric point [1] is listed as 4.5 and the “Isoelectric point (-)” value [1] is listed as 4.5.

In the case of “α-Lactalbumin: model protein, molecular weight 14 kDa”, the Isoelectric point [1] is given as 4.1-4.8 and the “Isoelectric point (-)” value [1] is given as 4.1-4.8.

With CCCCCCCCCCCCCCCCOC(=O)CCC(NC(=O)C(N)CCC(=O)O)C(=O)OCCCCCCCCCCCCCCCC (centres unmarked) [compound 28] the “hydrolysis in the liposome at low pH” value [2] was “hydrolyzed”.

For Ferritin, the Isoelectric point [1] is listed as 4.0-5.0 and the “Isoelectric point (-)” value [1] is listed as 4.0-5.0.

B1: Catalase (from bovie liver): model protein, 232 kDa (protein, UniProt P00432 2-527, looked up)
Catalase: ADNRDPASDQMKHWKEQRAAQKPDVLTTGGGNPVGDKLNSLTVGPRGPLLVQDVVFTDEMAHFDRERIPERVVHAKGAGAFGYFEVTHDITRYSKAKVFEHIGKRTPIAVRFSTVAGESGSADTVRDPRGFAVKFYTEDGNWDLVGNNTPIFFIRDALLFPSFIHSQKRNPQTHLKDPDMVWDFWSLRPESLHQVSFLFSDRGIPDGHRHMNGYGSHTFKLVNANGEAVYCKFHYKTDQGIKNLSVEDAARLAHEDPDYGLRDLFNAIATGNYPSWTLYIQVMTFSEAEIFPFNPFDLTKVWPHGDYPLIPVGKLVLNRNPVNYFAEVEQLAFDPSNMPPGIEPSPDKMLQGRLFAYPDTHRHRLGPNYLQIPVNCPYRARVANYQRDGPMCMMDNQGGAPNYYPNSFSAPEHQPSALEHRTHFSGDVQRFNSANDDNVTQVRTFYLKVLNEEQRKRLCENIAGHLKDAQLFIQKKAVKNFSDVHPEYGSRIQALLDKYNEEKPKNAVHTYVQHGSHLSAREKANL
In the case of B1, the “Isoelectric point (-)” value [1] is given as 5.5.

Source: patent publication US8647613B2, “Drug carrier” (JCR Pharmaceuticals Co., Ltd., priority 2005, dated 2014)
